Reference: publication PMC3273815

What was measured:
[1] = target: BcMCM 501–1028 (helicase domain) (Bacillus cereus (integrated prophage)); assay: negative-stain electron microscopy
[2] = target: BcMCM presensor I β-hairpin mutant (R737A) (Bacillus cereus (integrated prophage)); assay: SEC
[3] = target: BcMCM Walker B mutant (D711A) (Bacillus cereus (integrated prophage)); assay: SEC
BcMCM wild type [4] = target: T1, BcMCM wild type (Bacillus cereus (prophage), UniProt Q81EV1 1-1028); assay: pull-down
T1 sequence: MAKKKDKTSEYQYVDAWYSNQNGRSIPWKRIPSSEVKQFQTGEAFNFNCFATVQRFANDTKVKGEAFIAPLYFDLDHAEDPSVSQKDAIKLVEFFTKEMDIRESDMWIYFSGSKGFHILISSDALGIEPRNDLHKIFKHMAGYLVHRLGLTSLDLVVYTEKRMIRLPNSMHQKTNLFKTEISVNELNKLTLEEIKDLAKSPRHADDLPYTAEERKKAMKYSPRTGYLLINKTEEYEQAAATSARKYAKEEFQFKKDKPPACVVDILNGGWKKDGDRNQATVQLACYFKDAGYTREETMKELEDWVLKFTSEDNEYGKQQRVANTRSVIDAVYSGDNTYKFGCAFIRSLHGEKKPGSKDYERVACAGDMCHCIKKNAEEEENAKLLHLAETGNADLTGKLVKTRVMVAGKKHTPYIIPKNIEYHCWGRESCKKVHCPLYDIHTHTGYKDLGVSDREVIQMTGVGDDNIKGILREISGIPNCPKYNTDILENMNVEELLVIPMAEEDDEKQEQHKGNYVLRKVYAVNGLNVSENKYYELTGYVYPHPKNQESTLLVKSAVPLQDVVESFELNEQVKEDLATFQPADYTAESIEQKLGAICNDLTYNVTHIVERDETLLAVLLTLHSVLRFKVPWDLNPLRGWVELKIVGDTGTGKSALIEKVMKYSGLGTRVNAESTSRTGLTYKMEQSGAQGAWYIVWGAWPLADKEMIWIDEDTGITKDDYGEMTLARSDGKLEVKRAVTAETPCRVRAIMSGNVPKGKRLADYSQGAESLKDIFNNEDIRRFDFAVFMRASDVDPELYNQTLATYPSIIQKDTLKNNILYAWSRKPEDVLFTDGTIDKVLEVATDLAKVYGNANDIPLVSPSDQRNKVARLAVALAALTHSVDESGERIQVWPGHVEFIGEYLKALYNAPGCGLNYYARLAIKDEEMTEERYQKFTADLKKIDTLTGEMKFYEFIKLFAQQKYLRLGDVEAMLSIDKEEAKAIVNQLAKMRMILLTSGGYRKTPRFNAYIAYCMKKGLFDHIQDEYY

BcMCM wild type [5] = target: T1, BcMCM wild type; assay: EMSA

BcMCM 501–1028 (helicase domain) (domain or fragment)
stoichiometry N [1]: 6

BcMCM presensor I β-hairpin mutant (R737A) (enzyme)
stoichiometry N [2]: 6

BcMCM Walker B mutant (D711A) (enzyme)
stoichiometry N [3]: 6

B1: biotin-EcoRI-(dT)50 tailed duplex (mixed)
DNA 1: TCCCCCGAATTCCCCCCTTTTTTTTTTTTTTTTTTTTTTTTTTTTTTTTTTTTTTTTTTTTTTTTTT
DNA 2: GGGGGGAATTCGGGGG
modifications: 5' biotin on strand 1
binding result (BcMCM wild type [4]): binds

B2: bubble (dsDNA)
DNA 1: ACTGGCCGTCGTTTTACAACGTCGTGACTGGGAAAACCCTGGCGTTACCCAACTTAATCG
DNA 2: CGATTAAGTTGGGTAACGGGTCCCAAAAGGGTCAGTGCTGCATGTAAAACGACGGCCAGT
binding result (BcMCM wild type [5]): binds

B3: template-primer, 3'-end oligo (mixed)
DNA 1: B2 DNA 1
DNA 2: CGATTAAGTTGGGTAACGCC
binding result (BcMCM wild type [5]): binds

B4: template-primer, 5'-end oligo (mixed)
DNA 1: B2 DNA 1
DNA 2: GTTGTAAAACGACGGCCAGT
binding result (BcMCM wild type [5]): binds
